Here are results for six sequences from the supplement of paper PMC5998384.

The subject of data set [1] is HeLa Kyoto. Put plainly: melting temperature (median over replicates), in situ; higher = more thermally stable.
Data set [2] concerns HeLa Kyoto. Put plainly: thermal stability score vs G1/S (z-score of summed log2 fold changes over temperatures); higher = more thermally stable than in G1/S.
Data set [3] concerns HeLa Kyoto. Put plainly: solubility in G1/S (NP-40 vs SDS abundance) (log2 ratio); higher = more soluble. To be noted: cell cycle stage: G1/S.
Data set [4] deals with HeLa Kyoto. Put plainly: solubility change mitosis vs G1/S (difference of NP-40 vs SDS log2 ratios) (log2 ratio difference); higher = more soluble in mitosis.
The mark [5] stands for this setting: cell cycle stage: early G1 (4.5 h after nocodazole release).
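Throughout, for melting temperature (median over replicates), in situ: HeLa Kyoto cells synchronized by double thymidine or nocodazole block, proteins quantified by TMT10plex mass spectrometry, three independent biological replicates.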
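Throughout, for solubility change mitosis vs G1/S (difference of NP-40 vs SDS log2 ratios): synchronized HeLa Kyoto cells (double thymidine block for G1/S, nocodazole release for mitosis), protein amounts in NP-40 versus SDS lysates quantified by mass spectrometry, three biological replicates.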
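Throughout, for solubility in G1/S (NP-40 vs SDS abundance): HeLa Kyoto cells arrested at G1/S by double thymidine block, proteins quantified by TMT10plex mass spectrometry in mild NP-40 versus SDS extracts, three biological replicates.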
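Throughout, for thermal stability score vs G1/S (z-score of summed log2 fold changes over temperatures): synchronized HeLa Kyoto cells, proteins quantified by TMT10plex mass spectrometry, three biological replicates, mitosis taken 0.5 h after nocodazole release, G1/S directly after double thymidine block.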

As for “MSSDASQGVITTPPPPSMPHKERYFDRINENDPEYIRERNMSPDLRQDFNMMEQRKRVTQILQSPAFREDLECLIQEQMKKGHNPTGLLALQQIADYIMANSFSGFSSPPLSLGMVTPINDLPGADTSSYVKGEKLTRCKLASLYRLVDLFGWAHLANTYISVRISKEQDHIIIIPRGLSFSEATASNLVKVNIIGEVVDQGSTNLKIDHTGFSPHAAIYSTRPDVKCVIHIHTLATAAVSSMKCGILPISQESLLLGDVAYYDYQGSLEEQEERIQLQKVLGPSCKVLVLRNHGVVALGETLEEAFHYIFNVQLACEIQVQALAGAGGVDNLHVLDFQKYKAFTYTVAASGGGGVNMGSHQKWKVGEIEFEGLMRTLDNLGYRTGYAYRHPLIREKPRHKSDVEIPATVTAFSFEDDTVPLSPLKYMAQRQQREKTRWLNSPNTYMKVNVPEESRNGETSPRTKITWMKAEDSSKVSGGTPIKIEDPNQFVPLNTNPNEVLEKRNKIREQNRYDLKTAGPQSQLLAGIVVDKPPSTMQFEDDDHGPPAPPNPFSHLTEGELEEYKRTIERKQQGLEDAEQELLSDDASSVSQIQSQTQSPQNVPEKLEENHELFSKSFISMEVPVMVVNGKDDMHDVEDELAKRVSRLSTSTTIENIEITIKSPEKIEEVLSPEGSPSKSPSKKKKKFRTPSFLKKNKKKEKVEA [ADD3]”, the melting temperature stood at 55.9 °C with HeLa Kyoto [1] (cell cycle stage: G1/S) and 55.5 °C in the data set on HeLa Kyoto [1] (cell cycle stage: mitosis). Moreover, the thermal stability score is -4.93 with HeLa Kyoto [2] (setting [5]) and -3.64 in the data set on HeLa Kyoto [2] (cell cycle stage: mitosis). Further, in the data set with HeLa Kyoto [3], the “solubility in G1/S (log2)” value is -0.181. Moreover, the “solubility change mitosis (log2)” value in the data set on HeLa Kyoto [4] turned out to be 0.481.
Take “MESMLNKLKSTVTKVTADVTSAVMGNPVTREFDVGRHIASGGNGLAWKIFNGTKKSTKQEVAVFVFDKKLIDKYQKFEKDQIIDSLKRGVQQLTRLRHPRLLTVQHPLEESRDCLAFCTEPVFASLANVLGNWENLPSPISPDIKDYKLYDVETKYGLLQVSEGLSFLHSSVKMVHGNITPENIILNKSGAWKIMGFDFCVSSTNPSEQEPKFPCKEWDPNLPSLCLPNPEYLAPEYILSVSCETASDMYSLGTVMYAVFNKGKPIFEVNKQDIYKSFSRQLDQLSRLGSSSLTNIPEEVREHVKLLLNVTPTVRPDADQMTKIPFFDDVGAVTLQYFDTLFQRDNLQKSQFFKGLPKVLPKLPKRVIVQRILPCLTSEFVNPDMVPFVLPNVLLIAEECTKEEYVKLILPELGPVFKQQEPIQILLIFLQKMDLLLTKTPPDEIKNSVLPMVYRALEAPSIQIQELCLNIIPTFANLIDYPSMKNALIPRIKNACLQTSSLAVRVNSLVCLGKILEYLDKWFVLDDILPFLQQIPSKEPAVLMGILGIYKCTFTHKKLGITKEQLAGKVLPHLIPLSIENNLNLNQFNSFISVIKEMLNRLESEHKTKLEQLHIMQEQQKSLDIGNQMNVSEEMKVTNIGNQQIDKVFNNIGADLLTGSESENKEDGLQNKHKRASLTLEEKQKLAKEQEQAQKLKSQQPLKPQVHTPVATVKQTKDLTDTLMDNMSSLTSLSVSTPKSSASSTFTSVPSMGIGMMFSTPTDNTKRNLTNGLNANMGFQTSGFNMPVNTNQNFYSSPSTVGVTKMTLGTPPTLPNFNALSVPPAGAKQTQQRPTDMSALNNLFGPQKPKVSMNQLSQQKPNQWLNQFVPPQGSPTMGSSVMGTQMNVIGQSAFGMQGNPFFNPQNFAQPPTTMTNSSSASNDLKDLFG [SCYL2]”: the values for the melting temperature with HeLa Kyoto [1] (cell cycle stage: G1/S) and in the data set with HeLa Kyoto [1] (cell cycle stage: mitosis) were 52.9 °C and 53.5 °C, respectively. Also, the thermal stability score was 0.219 in the data set on HeLa Kyoto [2] (setting [5]) and 0.842 in the data set with HeLa Kyoto [2] (cell cycle stage: mitosis). Also, the “solubility in G1/S (log2)” value in the data set with HeLa Kyoto [3] was 0.129. Further, in the data set with HeLa Kyoto [4], the “solubility change mitosis (log2)” value was -0.174.
On to “MDPSLLRERELFKKRALSTPVVEKRSASSESSSSSSKKKKTKVEHGGSSGSKQNSDHSNGSFNLKALSGSSGYKFGVLAKIVNYMKTRHQRGDTHPLTLDEILDETQHLDIGLKQKQWLMTEALVNNPKIEVIDGKYAFKPKYNVRDKKALLRLLDQHDQRGLGGILLEDIEEALPNSQKAVKALGDQILFVNRPDKKKILFFNDKSCQFSVDEEFQKLWRSVTVDSMDEEKIEEYLKRQGISSMQESGPKKVAPIQRRKKPASQKKRRFKTHNEHLAGVLKDYSDITSSK [GTF2E2]”, for which the melting temperature with HeLa Kyoto [1] (cell cycle stage: G1/S) came out at 48.9 °C; in the data set on HeLa Kyoto [1] (cell cycle stage: mitosis), 50.2 °C. Besides, the values for the thermal stability score in the data set on HeLa Kyoto [2] (setting [5]) and with HeLa Kyoto [2] (cell cycle stage: mitosis) were 1.36 and 3.1, respectively. The “solubility in G1/S (log2)” value in the data set on HeLa Kyoto [3] came to 0.797. Also, in the data set with HeLa Kyoto [4], the “solubility change mitosis (log2)” value came out at 0.135.
Turning to “MTGRAMDPLPAAAVGAAAEAEADEEADPPASDLPTPQAIEPQAIVQQVPAPSRMQMPQGNPLLLSHTLQELLARDTVQVELIPEKKGLFLKHVEYEVSSQRFKSSVYRRYNDFVVFQEMLLHKFPYRMVPALPPKRMLGADREFIEARRRALKRFVNLVARHPLFSEDVVLKLFLSFSGSDVQNKLKESAQCVGDEFLNCKLATRAKDFLPADIQAQFAISRELIRNIYNSFHKLRDRAERIASRAIDNAADLLIFGKELSAIGSDTTPLPSWAALNSSTWGSLKQALKGLSVEFALLADKAAQQGKQEENDVVEKLNLFLDLLQSYKDLCERHEKGVLHKHQRALHKYSLMKRQMMSATAQNREPESVEQLESRIVEQENAIQTMELRNYFSLYCLHQETQLIHVYLPLTSHILRAFVNSQIQGHKEMSKVWNDLRPKLSCLFAGPHSTLTPPCSPPEDGLCPH [SNX8]”, the melting temperature amounted to 54 °C in the data set with HeLa Kyoto [1] (cell cycle stage: G1/S) and 55.7 °C with HeLa Kyoto [1] (cell cycle stage: mitosis). The thermal stability score in the data set on HeLa Kyoto [2] (setting [5]) was -2.07; in the data set on HeLa Kyoto [2] (cell cycle stage: mitosis), -2.85. The “solubility in G1/S (log2)” value in the data set with HeLa Kyoto [3] was 0.249. The “solubility change mitosis (log2)” value with HeLa Kyoto [4] is -0.153.
Consider “MDVNIAPLRAWDDFFPGSDRFARPDFRDISKWNNRVVSNLLYYQTNYLVVAAMMISIVGFLSPFNMILGGIVVVLVFTGFVWAAHNKDVLRRMKKRYPTTFVMVVMLASYFLISMFGGVMVFVFGITFPLLLMFIHASLRLRNLKNKLENKMEGIGLKRTPMGIVLDALEQQEEGINRLTDYISKVKE [ARL6IP5]”, for which the melting temperature in the data set with HeLa Kyoto [1] (cell cycle stage: G1/S) worked out at 56.4 °C; with HeLa Kyoto [1] (cell cycle stage: mitosis) it was 57.5 °C. Moreover, the thermal stability score in the data set with HeLa Kyoto [2] (setting [5]) was 0.94; with HeLa Kyoto [2] (cell cycle stage: mitosis) it was 0.797. Further, the “solubility in G1/S (log2)” value in the data set with HeLa Kyoto [3] was -0.0879. Besides, the “solubility change mitosis (log2)” value with HeLa Kyoto [4] was -0.126.
As to “MEKGLTLPQDCRDFVHSLKMRSKYALFLVFVVIVFVFIEKENKIISRVSDKLKQIPQALADANSTDPALILAENASLLSLSELDSAFSQLQSRLRNLSLQLGVEPAMEAAGEEEEEQRKEEEPPRPAVAGPRRHVLLMATTRTGSSFVGEFFNQQGNIFYLFEPLWHIERTVSFEPGGANAAGSALVYRDVLKQLFLCDLYVLEHFITPLPEDHLTQFMFRRGSSRSLCEDPVCTPFVKKVFEKYHCKNRRCGPLNVTLAAEACRRKEHMALKAVRIRQLEFLQPLAEDPRLDLRVIQLVRDPRAVLASRMVAFAGKYKTWKKWLDDEGQDGLREEEVQRLRGNCESIRLSAELGLRQPAWLRGRYMLVRYEDVARGPLQKAREMYRFAGIPLTPQVEDWIQKNTQAAHDGSGIYSTQKNSSEQFEKWRFSMPFKLAQVVQAACGPAMRLFGYKLARDAAALTNRSVSLLEERGTFWVT [CHST3]”, the melting temperature with HeLa Kyoto [1] (cell cycle stage: G1/S) was found to be 55.3 °C; in the data set with HeLa Kyoto [1] (cell cycle stage: mitosis), 53.5 °C. The thermal stability score in the data set on HeLa Kyoto [2] (setting [5]) is -1.54; in the data set on HeLa Kyoto [2] (cell cycle stage: mitosis) it was -0.213. Further, in the data set with HeLa Kyoto [3], the “solubility in G1/S (log2)” value turned out to be 0.15. In the data set on HeLa Kyoto [4], the “solubility change mitosis (log2)” value was -0.0403.
